Results: patent publication US20210221894A1

Target: recombinant human DLL3 (ELISA coat) (human) (UniProt Q9NYJ7)
Test: ELISA, plate coated with recombinant human DLL3 0.5 µg/ml; commercial reagent mAb

Sequence of recombinant human DLL3 (ELISA coat) (human) (Q9NYJ7 27-492 limits assumed): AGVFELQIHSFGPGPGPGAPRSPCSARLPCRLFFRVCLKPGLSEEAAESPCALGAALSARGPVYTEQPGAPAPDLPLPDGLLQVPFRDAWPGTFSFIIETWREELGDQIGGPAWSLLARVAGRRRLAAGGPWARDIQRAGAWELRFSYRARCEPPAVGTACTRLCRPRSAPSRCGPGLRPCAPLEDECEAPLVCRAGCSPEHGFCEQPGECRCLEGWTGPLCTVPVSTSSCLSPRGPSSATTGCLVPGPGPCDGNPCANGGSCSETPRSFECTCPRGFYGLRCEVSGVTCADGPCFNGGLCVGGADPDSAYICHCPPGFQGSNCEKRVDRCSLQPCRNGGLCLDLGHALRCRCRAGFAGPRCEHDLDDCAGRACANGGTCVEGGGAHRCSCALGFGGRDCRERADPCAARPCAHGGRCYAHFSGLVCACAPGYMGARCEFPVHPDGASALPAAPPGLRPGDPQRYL

positive control antibody for DLL3 (R&D Systems, Minneapolis, Minn., Cat #MAB4315)
EC50: 0.1 nM
